# In patent US20120172298A1, “GLP-1 AND FGF21 COMBINATIONS FOR TREATMENT OF DIABETES TYPE 2” (Novo Nordisk A/S, priority 2009, published 2012):
# Where “and” joins values, the source holds several entries; their conditions need not be identical. Identical values can stand only once.
# Tested on: pancreatic islets from diabetic db/db mice
# Test: Restoration of glucose stimulated insulin release ex vivo (islet perifusion)
# Format: cell-based
# Set-up: AUC for time 35-75 minutes (glucose response), single repetitions / AUC for time 75-140 minutes (forskolin response), single repetitions: unit not given here
# Conditions: for insulin release: mean +/- SEM
# Protocol: This ex vivo example investigates the ability of pancreatic islets from diabetic db/db mice to restore, in response to treatment with FGF21 and GLP-1 compounds, the ability to release insulin in response to glucose stimulation.
# Islets from 25 db/db mice (Charles River), 15 weeks of age, were isolated according to the following procedure:
# Animals were killed by cervical dislocation and fixated with pins on a Styrofoam plate. Pancreata were removed and transferred to a Packard vial containing 5 ml collagenase (Life Science, grade II, cat. no. 100502) 300 units/ml (one pancreas/vial) which was kept on ice until all pancreata were removed. Then the pancreata were shaken in the Grant/Edmund S25 thermoshaker at 200 strokes/min. at 37° C. for 5 min. The tissue was transferred to a fresh vial containing 5 ml 150 units/ml collagenase (supernatant was discarded) and shaken again in the thermoshaker for 5 min. The tissue was further shaken 3-5 min. on the thermoshaker, and thereafter all shaking is done by hand for 5-10 sec. each time. These steps were repeated until all tissue was digested. The process was followed continuously under the stereomicroscope and once digested the tissue was pooled and collected in progressively fewer tubes. All supernatants were washed 3 times in HBSS+0.5% NCS (HBSS (10×) from Gibco, cat. no. 14060, is diluted 10× in H2O before use, Newborn Calf Serum (NCS) from Gibco, cat. no. 26010-066), allowed to sediment for 5 min. between each wash, and left on ice, following which the islets were ready for picking. Islets were purified by transferring a little bit of supernatant to a Petri dish, filling up with HBSS+NCS and subsequently transferring (by mouth pipetting) with a constriction pipette to a new Petri dish. From there the islet were re-picked until pure, and then incubated in RPMI 1640 medium (Gibco, cat no 61870-010)+10% NCS at 37° C.
# After incubation, the islets were washed in Krebs Ringer solution (115 mM NaCl, 4.7 mM KCl, 2.6 mM CaCl2, 1.2 mM KH2PO4, 1.2 mM MgSO4, 10 mM HEPES, 0.2% BSA, 2 mM glutamine, 5 mM NaHCO3, pH 7.4) and subsequently used in an islet perifusion experiment (Suprafusion 2500 from Brandel). For each of the three preincubation conditions four perifusion columns each with 60 islets were used. The islets were placed in Bio-gel P2 (Bio-Rad. cat. no. 150-4114) in the columns with a nylon mesh below and above the gel. The islets were initially perifused for 40 minutes with Krebs Ringer solution containing 3 mM glucose to obtain a stable baseline of insulin release. After 40 minutes the buffer was exchanged to 15 mM glucose for 30 minutes (time 40-70 min). Then the buffer was exchanged to 15 mM glucose containing 10 μM forskolin (Tocris 1099, batch 3A/86008) for 40 minutes (time 70-110 min). Finally the buffer was exchanged to low glucose (3 mM) for 30 minutes (time 110-140 min). The buffer was set to flow through the perifusion system at a rate of 0.3 ml/minute. Samples were taken every 5 minutes from time 30 to 140 min. Samples were stored at −20° C. and subsequently analysed for insulin, essentially as described by Poulsen et al. in Journal of Biomolecular Screening 12(X); p. 1-8, 2007 (LOCI (Luminescent Oxygen Channeling Immunoassay) sandwich immunoassay).
# The results (ng/ml insulin) are shown in Table 1 below as mean+/−standard error of mean (SEM). The figures for the control and the FGF21 compound are based on three repetitions (due to problems with one of the four columns in these two experiments), while the figures for the GLP-1 compound are based on four repetitions.
# The corresponding Area Under the Curve (designated AUC) figures were also calculated, and for the statistics the Student's T-test was used.
# [1] = insulin AUC per perifusion column, FGF21 = 50 nM Compound F1, GLP-1 = 100 nM Compound G3
molecule,measurement,setting,value
"Met-FGF21_human (protein, listed as Homo sapiens, N-terminal Met; mat_peptide (1)..(181); DISULFID (75)..(93)) HPIPDSSPLLQFGGQVRQRYLYTDDAQQTEAHLEIREDGTVGGAADQSPESLLQLKALKPGVIQILGVKTSRFLCQRPDGALYGSLHFDPEACSFRELLLEDGYNVYQSEAHGLPLHLPGNKSPHRDPAPRGPARFLPLPGLPPALPEPPGILAPQPPDVGSSDPLSMVGPSQGRSPSYAS",restoration of glucose stimulated insulin release ex vivo,"db/db mice pancreatic islets, Table 2 results, F1 50 nM, G3 100 nM",capable of restoring glucose stimulated insulin release
same,"AUC for time 35-75 minutes (glucose response), single repetitions",[1],521.2 and 514.5 and 359.9
same,"AUC for time 75-140 minutes (forskolin response), single repetitions",[1],5402 and 4177 and 5832
same,"AUC for time 75-140 minutes (forskolin response), mean","insulin AUC, FGF21 = 50 nM Compound F1, GLP-1 = 100 nM Compound G3, * FGF21 vs GLP-1",(mean 5137*)
same,"AUC for time 35-75 minutes (glucose response), mean","insulin AUC, FGF21 = 50 nM Compound F1, GLP-1 = 100 nM Compound G3, ** vs control",(mean 465.2**)
same,insulin release,"time 35 min, 3 mM glucose, islets preincubated 48 h with 50 nM Compound F1 or 100 nM Compound G3",0.92 ± 0.10 ng/mL
same,insulin release,"time 40 min, 3 mM glucose, preincubation 48 h 50 nM F1 or 100 nM G3",0.71 ± 0.06 ng/mL
same,insulin release,"time 45 min, 15 mM glucose, preincubation 48 h 50 nM F1 or 100 nM G3",0.68 ± 0.04 ng/mL
same,insulin release,"time 50 min, 15 mM glucose, preincubation 48 h 50 nM F1 or 100 nM G3",19.56 ± 6.74 ng/mL
same,insulin release,"time 55 min, 15 mM glucose, preincubation 48 h 50 nM F1 or 100 nM G3",28.33 ± 2.09 ng/mL
same,insulin release,"time 60 min, 15 mM glucose, preincubation 48 h 50 nM F1 or 100 nM G3",12.07 ± 0.50 ng/mL
same,insulin release,"time 65 min, 15 mM glucose, preincubation 48 h 50 nM F1 or 100 nM G3",11.13 ± 0.66 ng/mL
same,insulin release,"time 70 min, 15 mM glucose, preincubation 48 h 50 nM F1 or 100 nM G3",13.37 ± 0.63 ng/mL
same,insulin release,"time 75 min, 15 mM glucose + 10 μM forskolin, preincubation 48 h 50 nM F1 or 100 nM G3",13.47 ± 0.78 ng/mL
same,insulin release,"time 80 min, 15 mM glucose + 10 μM forskolin, preincubation 48 h 50 nM F1 or 100 nM G3",77.17 ± 14.84 ng/mL
same,insulin release,"time 85 min, 15 mM glucose + 10 μM forskolin, preincubation 48 h 50 nM F1 or 100 nM G3",160.00 ± 16.52 ng/mL
same,insulin release,"time 90 min, 15 mM glucose + 10 μM forskolin, preincubation 48 h 50 nM F1 or 100 nM G3",154.00 ± 15.00 ng/mL
same,insulin release,"time 95 min, 15 mM glucose + 10 μM forskolin, preincubation 48 h 50 nM F1 or 100 nM G3",148.33 ± 17.95 ng/mL
same,insulin release,"time 100 min, 15 mM glucose + 10 μM forskolin, preincubation 48 h 50 nM F1 or 100 nM G3",125.00 ± 17.35 ng/mL
same,insulin release,"time 105 min, 15 mM glucose + 10 μM forskolin, preincubation 48 h 50 nM F1 or 100 nM G3",99.40 ± 11.84 ng/mL
same,insulin release,"time 110 min, 15 mM glucose + 10 μM forskolin, preincubation 48 h 50 nM F1 or 100 nM G3",79.97 ± 8.43 ng/mL
same,insulin release,"time 115 min, low glucose (3 mM), preincubation 48 h 50 nM F1 or 100 nM G3",69.63 ± 9.61 ng/mL
same,insulin release,"time 120 min, low glucose (3 mM), preincubation 48 h 50 nM F1 or 100 nM G3",56.23 ± 8.37 ng/mL
same,insulin release,"time 125 min, low glucose (3 mM), preincubation 48 h 50 nM F1 or 100 nM G3",30.03 ± 6.67 ng/mL
same,insulin release,"time 130 min, low glucose (3 mM), preincubation 48 h 50 nM F1 or 100 nM G3",13.16 ± 3.21 ng/mL
same,insulin release,"time 135 min, low glucose (3 mM), preincubation 48 h 50 nM F1 or 100 nM G3",5.76 ± 0.70 ng/mL
same,insulin release,"time 140 min, low glucose (3 mM), preincubation 48 h 50 nM F1 or 100 nM G3",3.92 ± 0.37 ng/mL
